Kd data for 3 substances are collected here from publication PMC10611751.

Chain of E-cadherin 751-775 (site-1) (P09803 751-775): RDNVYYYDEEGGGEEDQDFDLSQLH
Chain of E-cadherin 828-869 (containing both site-2 and site-3) (P09803 828-869): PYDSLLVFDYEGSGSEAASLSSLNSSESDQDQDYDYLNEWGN
Chain of E-cadherin C-terminal domain (residues 734-884) (P09803 734-884): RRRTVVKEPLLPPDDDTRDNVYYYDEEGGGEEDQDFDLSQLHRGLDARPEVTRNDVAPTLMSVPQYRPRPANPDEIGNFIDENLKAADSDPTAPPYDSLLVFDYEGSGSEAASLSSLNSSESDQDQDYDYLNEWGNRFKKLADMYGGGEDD

The test deals with Ankyrin-G ANK repeats 8-24. Description: ITC; E-cadherin proteins in the syringe (e.g. 200 μM Trx-E-cadherin) titrated into AnkG in the cell (e.g. 20 μM Trx-AnkG R1-24); 25 °C; 50 mM Tris, 100 mM NaCl, 1 mM EDTA, 1 mM DTT, pH 7.8; one-site binding model.
For “E-cadherin 751-775 (site-1) (from UniProt P09803 751-775) (domain or fragment)”, the Kd (as a rule, the equilibrium constant for the complex coming apart) stood at 1.3 µM.

“E-cadherin 828-869 (containing both site-2 and site-3) (from UniProt P09803 828-869) (domain or fragment)” returned a Kd of 2.5 µM.

As for “E-cadherin C-terminal domain (residues 734-884) (from UniProt P09803 734-884) (domain or fragment)”, the equilibrium dissociation constant (Kd) worked out at 1.5 µM.
